The values that follow come from article PMC10277282.

The target in this experiment is MHC II (mouse (endogenous in BMDM)) (UniProt P14434).
Sequence of UniProt P14434 (P14434 24-256, chain 1 of 2): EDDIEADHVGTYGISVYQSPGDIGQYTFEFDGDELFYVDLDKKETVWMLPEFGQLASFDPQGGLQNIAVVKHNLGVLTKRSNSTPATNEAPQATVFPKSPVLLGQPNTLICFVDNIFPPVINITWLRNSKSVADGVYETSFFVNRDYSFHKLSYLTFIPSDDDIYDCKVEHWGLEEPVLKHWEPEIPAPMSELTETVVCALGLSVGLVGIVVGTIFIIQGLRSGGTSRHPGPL
Sequence of UniProt P14434 (P14483 28-265, chain 2 of 2, further chain): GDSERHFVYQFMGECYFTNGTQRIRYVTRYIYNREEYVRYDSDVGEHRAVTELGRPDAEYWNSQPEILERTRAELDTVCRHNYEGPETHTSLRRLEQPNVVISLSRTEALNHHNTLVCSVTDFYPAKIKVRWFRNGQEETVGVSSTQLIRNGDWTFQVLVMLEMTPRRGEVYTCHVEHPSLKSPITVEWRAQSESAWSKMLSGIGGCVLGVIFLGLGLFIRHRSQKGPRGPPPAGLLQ

For the substance “soluble CD4 (ectodomain of CD4, D1-D4 domains) (from UniProt P06332 27-394) (domain or fragment)”, the TLR4 hyperinflammation in vivo (LPS sepsis in mice); concentration of sCD4 needed for 50% inhibition came out at 125 nM and the TNF/IL-6 response of macrophages to LPS in vitro; concentration of sCD4 needed for 50% inhibition of TLR4 hyperinflammation turned out to be 25 nM.
